Test system: serum uric acid (sUA)
Assay: Serum uric acid (sUA) levels and sUA responders, open-label study of pegloticase with MTX (NCT03635957)
Type: in vivo, human
Method: The primary objective is to estimate the response rate during Month 6 (Weeks 20, 22, and 24), as measured by the sustained normalization of serum uric acid (SUA) to <6 mg/dL for at least 80% of the time during Month 6 in subjects receiving KXX with MTX.
The primary efficacy outcome endpoint is the sustained normalization of SUA to <6 mg/dL for at least 80% of the time during month 6 (weeks 20, 22, and 24) in subjects receiving KXX with MTX. This is slightly below the urate solubility threshold and this threshold has been the accepted standard for nearly all modern gout trials. Participants who achieve this endpoint were classified as “responders.” Serum uric acid (SUA) responders may also be defined as participants achieving and maintaining SUA <6 mg/dL for at least 80% of the time during Month 6 (Weeks 20, 22, and 24).
Blood samples may be collected prior to each pegloticase infusion for measurement of SUA levels using the Beckman Coulter AU System Uric Acid procedure. Participants were declared “non-responders” if there were SUA measures >6 mg/dL at 2 consecutive study visits beginning with the week 2 visit. […] If the SUA goal is not maintained before or at the 12-week mark, it was assumed that the participant had developed clinically relevant anti-pegloticase antibody and they received no further infusions. This assumption and subsequent discontinuation of pegloticase was consistent with the protocol of large phase III randomized controlled trials and the product label. A formal stopping rule was 2 occasions of SUA levels of greater than 6 mg/dL.
Clinical Chemistry—Blood samples were collected prior to each pegloticase infusion for measurement of SUA levels (primary efficacy parameter) using the Beckman Coulter AU System Uric Acid procedure. In this procedure uric acid is converted to hydrogen peroxide. Hydrogen peroxide reacts with reagent to produce a chromophore which is read bichromatically at 660/800 nm. The amount of dye formed is proportional to the uric acid concentration in the sample.
Serum samples for measurement of SUA levels were collected at the Screening Visit, the Week −4 Visit (prior to the first dose of MTX), and the Week −2 Visit during the MTX Run-in Period; within 48 hours prior to each pegloticase infusion and after the end of each pegloticase infusion prior to discharge from the site during the Pegloticase+IMM Period; at the non-infusion Week 52/End of Study/Early Termination Visits and at the Post Treatment 3 and 6 Month Follow-up Visits. Additional serum samples for SUA levels were collected at optional non-infusion (Frequent Sampling) Visits at Weeks 1 and 7. […] Subjects with SUA level >6 mg/dL at 2 consecutive visits beginning at Week 2 visit discontinued treatment, completed the End of Pegloticase Infusion Visit procedures within 2 weeks and continued the subject visits according to the protocol (without treatment).
Efficacy analyses were performed using the modified intention-to-treat (mITT) population, defined as all enrolled subjects who received ≥1 dose of pegloticase. The proportion of Month 6 responders was summarized, along with a 95% confidence interval for the proportion. The proportion of Month 3 and overall (Months 3 and 6 combined) responders was analyzed similarly.
A subject was declared a non-responder if the subject had SUA level >6 mg/dL at 2 consecutive study visits beginning with the Week 2 Visit. In addition, a subject who withdraws from study treatment for any reason after the first dose of pegloticase in the KXX+MTX Period and prior to Month 6 (for the primary endpoint) or Month 3 (for the secondary endpoint) was considered a non-responder if SUA values were not collected at the planned time points.
Patients were administered oral MTX (15 mg/week) and folate (1 mg/day) 4 weeks prior to the first pegloticase infusion (Day 1) and throughout the pegloticase treatment period. […]

[1] = Week 18 - Pre-Infusion, Month 6 sUA Responders
[2] = Week 18 - Pre-Infusion, mITT, n=11
[3] = Week 20 - Post-Infusion, Month 6 sUA Responders
[4] = Week 20 - Post-Infusion, mITT, n=11
[5] = Week 20 - Pre-Infusion, Month 6 sUA Responders
[6] = Week 20 - Pre-Infusion, mITT, n=11
[7] = Week 22 - Post-Infusion, Month 6 sUA Responders
[8] = Week 22 - Post-Infusion, mITT, n=11
[9] = Week 22 - Pre-Infusion, Month 6 sUA Responders
[10] = Week 22 - Pre-Infusion, mITT, n=11
[11] = Week 24 - Post-Infusion, Month 6 sUA Responders
[12] = Week 24 - Post-Infusion, mITT, n=5
[13] = Week 24 - Pre-Infusion, Month 6 sUA Responders
[14] = Week 24 - Pre-Infusion, mITT, n=11
[15] = Week 26 - Pre-Infusion, Month 6 sUA Responders
[16] = Week 26 - Pre-Infusion, mITT, n=8
[17] = Week 28 - Pre-Infusion, Month 6 sUA Responders
[18] = Week 28 - Pre-Infusion, mITT, n=8
[19] = Week 30 - Pre-Infusion, Month 6 sUA Responders
[20] = Week 30 - Pre-Infusion, mITT, n=8
[21] = Week 32 - Post-Infusion, Month 6 sUA Responders
[22] = Week 32 - Post-Infusion, mITT, n=8
[23] = Week 32 - Pre-Infusion, Month 6 sUA Responders
[24] = Week 32 - Pre-Infusion, mITT, n=10
[25] = Week 34 - Post-Infusion, Month 6 sUA Responders
[26] = Week 34 - Post-Infusion, mITT, n=8

B1: pegloticase (protein)
chain: TYKKNDEVEFVRTGYGKDMIKVLHIQRDGKYHSIKEVATTVQLTLSSKKDYLHGDNSDVIPTDTIKNTVNVLAKFKGIKSIETFAVTICEHFLSSFKHVIRAQVYVEEVPWKRFEKNGVKHVHAFIYTPTGTHFCEVEQIRNGPPVIHSGIKDLKVLKTTQSGFEGFIKDQFTTLPEVKDRCFATQVYCKWRYHQGRDVDFEATWDTVRSIVLQKFAGPYDKGEYSPSVQKTLYDIQVLTLGQVPEIEDMEISLPNIHYLNIDMSKMGLINKEEVLLPLDNPYGKITGTVKRKLSSRL
modifications: monomethoxy PEG conjugated; Krystexxa Sequence
notes: covalent conjugate of uricase produced by a genetically modified strain of Escherichia coli and monomethoxypoly (ethylene glycol)
- sUA Change from Baseline, Mean [1]: -8.97 mg/dL
- sUA Change from Baseline, Median [1]: -8.80 mg/dL
- sUA Observed, Mean [1]: 0.30 mg/dL
- sUA Observed, Median [1]: 0.30 mg/dL
- sUA < 6 mg/dL, n (%) [2]: 11 (100%)
- sUA Change from Baseline, Mean (SD) [2]: −8.97 (2.810) mg/dL
- sUA Change from Baseline, Median [2]: -8.80 mg/dL
- sUA Observed, Mean (SD) [2]: 0.30 (0.000) mg/dL
- sUA Observed, Median [2]: 0.30 mg/dL
- sUA < 6 mg/dL, % [3]: (100%)
- sUA Change from Baseline, Mean [3]: -8.97 mg/dL
- sUA Change from Baseline, Median [3]: -8.80 mg/dL
- sUA Observed, Mean [3]: 0.30 mg/dL
- sUA Observed, Median [3]: 0.30 mg/dL
- sUA < 6 mg/dL, n (%) [4]: 11 (100%)
- sUA Change from Baseline, Mean (SD) [4]: −8.97 (2.810) mg/dL
- sUA Change from Baseline, Median [4]: -8.80 mg/dL
- sUA Observed, Mean (SD) [4]: 0.30 (0.000) mg/dL
- sUA Observed, Median [4]: 0.30 mg/dL
- sUA < 6 mg/dL, % [5]: (100%)
- sUA Change from Baseline, Mean [5]: -8.97 mg/dL
- sUA Change from Baseline, Median [5]: -8.80 mg/dL
- sUA Observed, Mean [5]: 0.30 mg/dL
- sUA Observed, Median [5]: 0.30 mg/dL
- sUA < 6 mg/dL, n (%) [6]: 11 (100%)
- sUA Change from Baseline, Mean (SD) [6]: −8.97 (2.810) mg/dL
- sUA Change from Baseline, Median [6]: -8.80 mg/dL
- sUA Observed, Mean (SD) [6]: 0.30 (0.000) mg/dL
- sUA Observed, Median [6]: 0.30 mg/dL
- sUA < 6 mg/dL, % [7]: (100%)
- sUA Change from Baseline, Mean [7]: -8.97 mg/dL
- sUA Change from Baseline, Median [7]: -8.80 mg/dL
- sUA Observed, Mean [7]: 0.30 mg/dL
- sUA Observed, Median [7]: 0.30 mg/dL
- sUA < 6 mg/dL, n (%) [8]: 11 (100%)
- sUA Change from Baseline, Mean (SD) [8]: −8.97 (2.810) mg/dL
- sUA Change from Baseline, Median [8]: -8.80 mg/dL
- sUA Observed, Mean (SD) [8]: 0.30 (0.000) mg/dL
- sUA Observed, Median [8]: 0.30 mg/dL
- sUA < 6 mg/dL, % [9]: (100%)
- sUA Change from Baseline, Mean [9]: -8.97 mg/dL
- sUA Change from Baseline, Median [9]: -8.80 mg/dL
- sUA Observed, Mean [9]: 0.30 mg/dL
- sUA Observed, Median [9]: 0.30 mg/dL
- sUA < 6 mg/dL, n (%) [10]: 11 (100%)
- sUA Change from Baseline, Mean (SD) [10]: −8.97 (2.810) mg/dL
- sUA Change from Baseline, Median [10]: -8.80 mg/dL
- sUA Observed, Mean (SD) [10]: 0.30 (0.000) mg/dL
- sUA Observed, Median [10]: 0.30 mg/dL
- sUA < 6 mg/dL, % [11]: (100%)
- sUA Change from Baseline, Mean [11]: -9.18 mg/dL
- sUA Change from Baseline, Median [11]: -9.30 mg/dL
- sUA Observed, Mean [11]: 0.30 mg/dL
- sUA Observed, Median [11]: 0.30 mg/dL
- sUA < 6 mg/dL, n (%) [12]: 5 (100%)
- sUA Change from Baseline, Mean (SD) [12]: −9.18 (4.135) mg/dL
- sUA Change from Baseline, Median [12]: -9.30 mg/dL
- sUA Observed, Mean (SD) [12]: 0.30 (0.000) mg/dL
- sUA Observed, Median [12]: 0.30 mg/dL
- sUA < 6 mg/dL, % [13]: (100%)
- sUA Change from Baseline, Mean [13]: -8.97 mg/dL
- sUA Change from Baseline, Median [13]: -8.80 mg/dL
- sUA Observed, Mean [13]: 0.30 mg/dL
- sUA Observed, Median [13]: 0.30 mg/dL
- sUA < 6 mg/dL, n (%) [14]: 11 (100%)
- sUA Change from Baseline, Mean (SD) [14]: −8.97 (2.810) mg/dL
- sUA Change from Baseline, Median [14]: -8.80 mg/dL
- sUA Observed, Mean (SD) [14]: 0.30 (0.000) mg/dL
- sUA Observed, Median [14]: 0.30 mg/dL
- sUA < 6 mg/dL, % [15]: (100%)
- sUA Change from Baseline, Mean [15]: -9.11 mg/dL
- sUA Change from Baseline, Median [15]: -8.95 mg/dL
- sUA Observed, Mean [15]: 0.30 mg/dL
- sUA Observed, Median [15]: 0.30 mg/dL
- sUA < 6 mg/dL, n (%) [16]: 8 (100%)
- sUA Change from Baseline, Mean (SD) [16]: −9.11 (3.293) mg/dL
- sUA Change from Baseline, Median [16]: -8.95 mg/dL
- sUA Observed, Mean (SD) [16]: 0.30 (0.000) mg/dL
- sUA Observed, Median [16]: 0.30 mg/dL
- sUA < 6 mg/dL, % [17]: (100%)
- sUA Change from Baseline, Mean [17]: -9.11 mg/dL
- sUA Change from Baseline, Median [17]: -8.95 mg/dL
- sUA Observed, Mean [17]: 0.30 mg/dL
- sUA Observed, Median [17]: 0.30 mg/dL
- sUA < 6 mg/dL, n (%) [18]: 8 (100%)
- sUA Change from Baseline, Mean (SD) [18]: −9.11 (3.293) mg/dL
- sUA Change from Baseline, Median [18]: -8.95 mg/dL
- sUA Observed, Mean (SD) [18]: 0.30 (0.000) mg/dL
- sUA Observed, Median [18]: 0.30 mg/dL
- sUA < 6 mg/dL, % [19]: (100%)
- sUA Change from Baseline, Mean [19]: -9.11 mg/dL
- sUA Change from Baseline, Median [19]: -8.95 mg/dL
- sUA Observed, Mean [19]: 0.30 mg/dL
- sUA Observed, Median [19]: 0.30 mg/dL
- sUA < 6 mg/dL, n (%) [20]: 8 (100%)
- sUA Change from Baseline, Mean (SD) [20]: −9.11 (3.293) mg/dL
- sUA Change from Baseline, Median [20]: -8.95 mg/dL
- sUA Observed, Mean (SD) [20]: 0.30 (0.000) mg/dL
- sUA Observed, Median [20]: 0.30 mg/dL
- sUA < 6 mg/dL, % [21]: (100%)
- sUA Change from Baseline, Mean [21]: -9.11 mg/dL
- sUA Change from Baseline, Median [21]: -8.95 mg/dL
- sUA Observed, Mean [21]: 0.30 mg/dL
- sUA Observed, Median [21]: 0.30 mg/dL
- sUA < 6 mg/dL, n (%) [22]: 8 (100%)
- sUA Change from Baseline, Mean (SD) [22]: −9.11 (3.293) mg/dL
- sUA Change from Baseline, Median [22]: -8.95 mg/dL
- sUA Observed, Mean (SD) [22]: 0.30 (0.000) mg/dL
- sUA Observed, Median [22]: 0.30 mg/dL
- sUA < 6 mg/dL, % [23]: (100%)
- sUA Change from Baseline, Mean [23]: -8.99 mg/dL
- sUA Change from Baseline, Median [23]: -8.95 mg/dL
- sUA Observed, Mean [23]: 0.30 mg/dL
- sUA Observed, Median [23]: 0.30 mg/dL
- sUA < 6 mg/dL, n (%) [24]: 10 (100%)
- sUA Change from Baseline, Mean (SD) [24]: −8.99 (2.961) mg/dL
- sUA Change from Baseline, Median [24]: -8.95 mg/dL
- sUA Observed, Mean (SD) [24]: 0.30 (0.000) mg/dL
- sUA Observed, Median [24]: 0.30 mg/dL
- sUA < 6 mg/dL, % [25]: (100%)
- sUA Change from Baseline, Mean [25]: -9.11 mg/dL
- sUA Change from Baseline, Median [25]: -8.95 mg/dL
- sUA Observed, Mean [25]: 0.30 mg/dL
- sUA Observed, Median [25]: 0.30 mg/dL
- sUA < 6 mg/dL, n (%) [26]: 8 (100%)
- sUA Change from Baseline, Mean (SD) [26]: −9.11 (3.293) mg/dL
- sUA Change from Baseline, Median [26]: -8.95 mg/dL
- sUA Observed, Mean (SD) [26]: 0.30 (0.000) mg/dL
- sUA Observed, Median [26]: 0.30 mg/dL
